Measurements: patent US7148053 (BASF AKTIENGESELLSCHAFT, dated 2006)
Blank lines part the entries; values can stand above or below the molecule they belong to. Positions of bridges follow the written chain, without caps; N, C: chain ends. No end group written: not given here. *: point of attachment. 125I = [125I]*

How the values were obtained:
[1] = biological target: yeast Gβγ (Saccharomyces cerevisiae) (UniProt P18851); experiment: cell-based or functional assay
rat CCKB receptor (rat) = rat CCKB receptor (rat) (UniProt P30553); experiment: cell-based or functional assay
[2] = biological target: human GRF receptor (human) (UniProt Q02643); experiment: cell-based or functional assay
[3] = biological target: T1, rat SSTR2 somatostatin receptor subtype (rat, UniProt P30680 1-369); experiment: radioligand saturation binding, yeast membranes coexpressing Scg1/Gαi2
T1 construct: whole, on cells; Tested in yeast cells or crude yeast membranes; also called somatostatin receptor subtype 2
T1 sequence (P30680 whole entry): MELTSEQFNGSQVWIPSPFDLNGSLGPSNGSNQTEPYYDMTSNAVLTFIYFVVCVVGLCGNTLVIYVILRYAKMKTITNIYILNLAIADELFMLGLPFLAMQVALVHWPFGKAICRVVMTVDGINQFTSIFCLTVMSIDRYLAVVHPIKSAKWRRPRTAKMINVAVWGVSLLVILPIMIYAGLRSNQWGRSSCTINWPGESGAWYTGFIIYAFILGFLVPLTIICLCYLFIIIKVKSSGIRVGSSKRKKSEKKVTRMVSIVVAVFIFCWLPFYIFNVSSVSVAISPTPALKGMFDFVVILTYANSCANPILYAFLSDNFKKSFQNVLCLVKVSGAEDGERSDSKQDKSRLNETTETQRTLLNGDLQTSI

yeast Gβγ (Saccharomyces cerevisiae), sequence (P18851 whole entry, chain 1 of 2): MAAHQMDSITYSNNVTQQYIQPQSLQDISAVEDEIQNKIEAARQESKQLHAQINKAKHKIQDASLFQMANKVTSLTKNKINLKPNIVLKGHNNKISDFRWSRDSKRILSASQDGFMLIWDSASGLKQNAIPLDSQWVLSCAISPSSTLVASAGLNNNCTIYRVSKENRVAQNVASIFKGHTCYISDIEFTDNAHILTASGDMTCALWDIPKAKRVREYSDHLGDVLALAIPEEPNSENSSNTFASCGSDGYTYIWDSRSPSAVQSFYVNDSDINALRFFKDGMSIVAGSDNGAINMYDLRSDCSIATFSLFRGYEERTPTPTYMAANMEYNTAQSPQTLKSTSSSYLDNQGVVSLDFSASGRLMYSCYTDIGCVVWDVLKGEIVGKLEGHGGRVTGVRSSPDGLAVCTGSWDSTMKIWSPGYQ
yeast Gβγ (Saccharomyces cerevisiae), sequence (P18852 1-107, chain 2 of 2, further chain): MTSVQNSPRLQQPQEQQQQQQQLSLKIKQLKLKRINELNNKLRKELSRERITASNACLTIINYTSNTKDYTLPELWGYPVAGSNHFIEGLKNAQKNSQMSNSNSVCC
rat CCKB receptor (rat), sequence (P30553 whole entry): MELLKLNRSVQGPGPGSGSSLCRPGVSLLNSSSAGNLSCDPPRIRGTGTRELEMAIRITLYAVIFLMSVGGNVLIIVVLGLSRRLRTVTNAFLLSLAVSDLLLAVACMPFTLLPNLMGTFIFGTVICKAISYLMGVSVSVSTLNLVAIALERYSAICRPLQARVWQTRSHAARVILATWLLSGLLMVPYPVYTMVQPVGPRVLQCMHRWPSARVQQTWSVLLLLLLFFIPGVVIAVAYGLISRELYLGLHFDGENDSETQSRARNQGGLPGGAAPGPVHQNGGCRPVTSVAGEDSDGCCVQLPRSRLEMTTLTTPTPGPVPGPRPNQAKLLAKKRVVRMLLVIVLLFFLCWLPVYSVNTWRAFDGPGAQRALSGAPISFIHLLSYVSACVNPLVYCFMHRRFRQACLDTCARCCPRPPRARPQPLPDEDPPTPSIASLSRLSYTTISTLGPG
human GRF receptor (human), sequence (Q02643 23-423): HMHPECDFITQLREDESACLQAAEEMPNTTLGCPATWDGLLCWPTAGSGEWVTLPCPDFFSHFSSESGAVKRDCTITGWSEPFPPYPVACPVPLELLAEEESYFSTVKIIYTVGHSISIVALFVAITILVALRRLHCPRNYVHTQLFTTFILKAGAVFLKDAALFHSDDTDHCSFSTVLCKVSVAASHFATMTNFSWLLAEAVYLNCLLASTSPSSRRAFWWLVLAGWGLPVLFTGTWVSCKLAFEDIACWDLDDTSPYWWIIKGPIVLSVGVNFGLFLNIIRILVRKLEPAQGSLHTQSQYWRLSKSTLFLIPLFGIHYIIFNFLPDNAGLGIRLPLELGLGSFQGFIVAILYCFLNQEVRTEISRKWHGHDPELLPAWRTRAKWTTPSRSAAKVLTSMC

Molecule: CCK-4 (from UniProt P06307 100-103) (peptide)
growth response, agar plate bioassay, strains LY628 and LY631 (rat CCKB receptor (rat)): 10 µg

Molecule: AGCKNFFWKTY(125I)TSC (disulfide 3-14 (inferred); ends not checked) [[^125I-tyr^11]-somatostatin 14]
Kd [3]: 0.6 nM

Continued, values first:

reduction of pheromone-induced FUS1-lacZ signaling, CEN plasmid [1]: 16%
Molecule: rat Gαi2 (from UniProt P04897 2-355)

growth response, agar plate bioassay, strain CY990 [2]: 20 nmol
Molecule: hGRF (1-29)-NH2 (from UniProt P01286 32-60) (peptide)
